Laboratory results from US20250282887A1 (Amgen, published 2025).

Assays:
human MAGEB18 = target: T1, human MAGEB18 (human, UniProt Q96M61 1-343); test: IHC, FFPE CHO cells transfected with human MAGEB18
T1 construct: whole, on cells; FFPE cell pellets; also called MAGE-18
T1 sequence (looked up): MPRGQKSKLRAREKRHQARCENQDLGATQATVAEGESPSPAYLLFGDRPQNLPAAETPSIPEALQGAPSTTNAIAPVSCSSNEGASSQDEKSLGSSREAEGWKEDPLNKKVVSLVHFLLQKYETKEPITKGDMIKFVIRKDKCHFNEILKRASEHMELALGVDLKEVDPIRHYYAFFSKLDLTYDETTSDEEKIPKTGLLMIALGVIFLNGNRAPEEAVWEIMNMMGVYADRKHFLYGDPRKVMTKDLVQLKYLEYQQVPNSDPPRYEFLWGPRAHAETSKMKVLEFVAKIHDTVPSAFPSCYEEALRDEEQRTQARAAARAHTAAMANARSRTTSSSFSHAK
Protocol: (§1) FFPE samples were sectioned at 4 μm and mounted on positive charged glass slides. After mounting, paraffin sections were air-dried at room temperature. FFPE TMA samples were received as freshly sectioned and mounted on glass slides. The fully automated IHC assay was performed on a Discovery Ultra Stainer (Ventana Medical Systems, Tucson, AZ) using Ventana Anti-Rabbit HQ (cat #760-4815), Ventana Anti-HQ HRP (cat #760-4820), and Ventana Antibody Diluent with Casein (cat #760-219) (Ventana Medical Systems, Tucson, AZ). The slides were baked on the Discovery Ultra Stainer at 60° C. for 8 minutes, de-paraffinized with Ventana Discovery wash (cat #950-510) for 3 cycles (8 minutes each) at 69° C., and underwent cell conditioning (target retrieval) at 95° C. for 16 minutes (for cell arrays) or 32 minutes (tissues or TMAs) in CC1 buffer (cat #950-500). Following this, slides were incubated with Background Sniper (cat #BS966M, Biocare Medical, Pacheco, CA) in a Ventana Option Prep kit (cat #771-751) for 28 minutes, incubated with CM inhibitor (a part of the Ventana DAB kit cat #760-159) for 12 minutes, and incubated for 1 h at RT with MAGE-B2 antibody diluted with Ventana diluent with Casein in a Ventana Prep kit (cat #770-001) (working concentration at 0.1 μg/ml for cell pellet, or 1-5 ug/ml for tissues) or with a matched concentration of isotype control Rabbit IgG1 antibody. Following this, slides were incubated with the Ventana Anti-Rabbit HQ (cat #760-4815) for 28 minutes at RT, Ventana Anti-HQ HRP (cat #760-4820) for 28 minutes at RT, and signals detected with Ventana DAB chromogen kit (cat #760-159) for 5 minutes at RT. Slides were counterstained with Ventana Hematoxylin II (cat #5266726001) for 8 minutes and Ventana Bluing reagent (cat #526676900) for 4 minutes. Slides were coverslipped and digitized using an Aperio AT2 scanner (Leica Biosystems Inc, Buffalo Grove, IL).

human MAGEB10 = target: T2, human MAGEB10 (human, UniProt Q96LZ2 1-347); test: IHC, FFPE CHO cells transfected with human MAGEB10
T2 construct: whole, on cells; FFPE cell pellets
T2 sequence (looked up): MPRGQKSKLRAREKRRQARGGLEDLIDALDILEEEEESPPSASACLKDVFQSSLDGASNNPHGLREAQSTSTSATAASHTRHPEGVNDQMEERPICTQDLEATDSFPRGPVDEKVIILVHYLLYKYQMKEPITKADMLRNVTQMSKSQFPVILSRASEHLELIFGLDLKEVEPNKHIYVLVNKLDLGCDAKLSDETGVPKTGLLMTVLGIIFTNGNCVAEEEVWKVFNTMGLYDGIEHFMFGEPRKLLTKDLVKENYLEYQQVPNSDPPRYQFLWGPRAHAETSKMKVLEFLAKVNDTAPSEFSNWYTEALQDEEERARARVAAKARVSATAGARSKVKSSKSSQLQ
Description: Negative control cells included parental Chinese hamster ovary (CHO) cells, CHO cells stably transfected with mCherry Vector Control (minus Myc/DDK tags), CHO cells stably transfected with mCherry-human DCAF4L2 (plus Myc/DDK tags). The cross-reactivity control cells included CHO cells transfected with mCherry Vector Control (plus Myc/DDK tags) with one of the human MAGE-B or MAGE-A family members (MAGEA1, MAGEA2, MAGEA3, MAGEA4, MAGEA5, MAGEA6, MAGEA8, MAGEA9, MAGEA11, MAGEA12, MAGEB1, MAGEB3, MAGEB4, MAGEB5, MAGEB6, MAGEB10, MAGEB16, MAGEB17, MAGEB18). Positive control cell lines included CHO cells transfected with mCherry Vector (plus Myc/DDK tags) with human MAGE-B2 or CHO cells transfected with mCherry Vector (open reading frame (ORF); minus Myc/DDK tags) with human MAGEB2, and thirteen human cancer cell lines with known endogenous RNA expression level of MAGEB2 (U266B1, T98G, KMM-1, U20S, CFPAC-1, SCaBER, UACC-257, CFPAC-1, VMRC-LCD, NCI-H1703, UM-UC-3, NCI-H1395, NCIH82).
as §1, with “antibody.” for “antibody. Following this, slides were incubated with the Ventana Anti-Rabbit HQ (cat #760-4815) for 28 minutes at RT, Ventana Anti-HQ HRP (cat #760-4820) for 28 minutes at RT, and signals detected with Ventana DAB chromogen kit (cat #760-159) for 5 minutes at RT. Slides were counterstained with Ventana Hematoxylin II (cat #5266726001) for 8 minutes and Ventana Bluing reagent (cat #526676900) for 4 minutes. Slides were coverslipped and digitized using an Aperio AT2 scanner (Leica Biosystems Inc, Buffalo Grove, IL).”

| Binder | binding result (human MAGEB18) | binding result (human MAGEB10) |
| --- | --- | --- |
| 1I14 (antibody, V domains shown, also called MAGE-B2 (1i14)) VH: QSVEESGGRLVTPGTPLTLTCTISGFSLSSYAMSWVRQAPGKGLEWIGSIGGGGSAVYASWAKGRFTISKTSTTVDLRITSPTTEDTAMYFCGRGFYSIDLWGPGTLVTVSS VL: DVVMTQTPASVEATVGGTVTIKCQSSQSVYDNNALAWYQQNAGQRPRLLIYGASTLASGVPSRFSASGSGTEFTLTISDLECADAATYYCQCTYYVSSYQNDFGGGTEVVVKG | no binding (tested: 0.1 µg/ml) | no binding (tested: 0.1 µg/ml) |
| 1C3 (antibody, V domains shown, also called MAGE-B2 (IC3); anti-MAGEB2 antibody 1C3) VH: QSLEESGGGLVQPEGSLTLTCTAFGVTLTNYYICWVRQAPGKGLEWVGCIDNANGRTYYASWAKGRFTISKTSSTTGTLQMTSLTAADTATYFCARSLATPLWGPGTLVTVSS VL: DIVMTQTPSSVEAAVGGTVTIKCQASQNISSYLAWYQQKPGQPPKLLIYRASTLASGVPSRFKGSGSGTQFTLTISDLECADAATYYCQSYDDSRSSNFFYAFGGGTEVVVKG | no binding (tested: 0.1 µg/ml) | no binding (tested: 0.1 µg/ml) |
| 4G17 (antibody, IgG1, V domains shown, Rabbit monoclonal IgG1; Tested as supernatant and as small batch purified antibody; also called MAGE-B2 (4G17); anti-MAGEB2 antibody 4G17) VH: QSLEESGGGLVQPEGSLTLTCTASGVTLSNYYICWVRQAPGKGLEWIGCIDNVNGRTYYASWAKGRFTISKTSSTTGTLQMTSLTAADTATYFCARSLATPLWGPGTLVTVSS VL: DIVMTQTPASVEAAVGGTVTIKCQASQNIDSYLAWYQQKPGQPPKLLIYRASTLASGVPSRFKGSGSGTEFTLTISDLECADAATYYCQSYDDSRSSSFFYGFGGGTEVVVK | no binding (tested: 0.1 µg/ml) | no binding (tested: 0.1 µg/ml) |
| 1J15 (antibody, IgG1, V domains shown, Rabbit monoclonal IgG1; Tested as supernatant and as small batch purified antibody; also called MAGE-B2 (IJ15); anti-MAGEB2 antibody 1J15) VH: QSLEESGGGLVQPEGSLTLTCTAFGFTLNNYYICWVRQAPGKGLEWIACIDNANGRTYYASWAKGRFTISKTSSTTVTLQMTSLTAADTATYFCARSLSTPLWGPGTLVTVSS VL: DIVMTQTPASVEAAVGGTVTIKCQASQSISSYLSWYQQKPGQPPKLLIYRASTLASGVPSRFRGSGSGTQFTLTISDLECADAATYYCQSYDDSSDNNFFYGFGGGTEVVVR | no binding (tested: 0.1 µg/ml) | no binding (tested: 0.1 µg/ml) |
